{"source": "patent US20230201308A1", "about": "“TREATMENT OF CORONAVIRUS INFECTION WITH […]” (Eiger Biopharmaceuticals, Inc., priority 2020, published 2023)", "molecules": {"B1": {"name": "pegylated interferon lambda-1a (protein)", "chain": "MKPTTTGKGCHIGRFKSLSPQELASFKKARDALEESLKLKNWSCSSPVFPGNWDLRLLQVRERPVALEAELALTLKVLEAAAGPALEDVLDQPLHTLHHILSQLQACIQPQPTAGPRPRGRLHHWLHRLQEAPKKESAGCLEASVTFNLFRLLTRDLKYVADGNLSLRTSTHPEST", "modifications": "PEG", "notes": "180 mcg subcutaneous injection"}}, "tested_on": "SARS-CoV-2", "key": {"[1]": {"details": "High risk population, Brazil, N = 698"}, "[2]": {"details": "High risk population, Brazil, N = 698 vs placebo N = 827"}, "[3]": {"details": "ITT population (Table 20), n=916 vs placebo 1003"}, "[4]": {"details": "ITT preliminary, n=916 vs placebo 1020"}}, "note": "Read-outs that look alike come from different tables or passages of the source.", "data": [{"molecule": "B1", "values": [{"measurement": "Hospitalization or ER (any duration) for COVID-19: total", "setting": "[1]", "value": 76}, {"measurement": "Hospitalization or ER >6 h for COVID-19: percentage", "setting": "[1]", "value": "(3.2%)"}, {"measurement": "Hospitalization or ER >6 h for COVID-19: total", "setting": "[1]", "value": 22}, {"measurement": "Mechanical ventilation: percentage", "setting": "[1]", "value": "(0.6%)"}, {"measurement": "Mechanical ventilation: total", "setting": "[1]", "value": 4}, {"measurement": "All cause ER visit >6 h, hospitalization, or death: Pr (Superiority)", "setting": "[2]", "value": 0.981}, {"measurement": "All cause ER visit >6 h, hospitalization, or death: RR (95% CrI), estimated treatment effect", "setting": "[2]", "value": "0.64 (0.42, 0.97)"}, {"measurement": "All cause ER visit, hospitalization, or death: Pr (Superiority)", "setting": "[2]", "value": 0.883}, {"measurement": "All cause ER visit, hospitalization, or death: RR (95% CrI), estimated treatment effect", "setting": "[2]", "value": "0.86 (0.68, 1.10)"}, {"measurement": "All cause death or hospitalization due to COVID-19: Pr (Superiority)", "setting": "[2]", "value": 0.924}, {"measurement": "All cause death or hospitalization due to COVID-19: RR (95% CrI), estimated treatment effect", "setting": "[2]", "value": "0.69 (0.41, 1.14)"}, {"measurement": "Days of hospitalization: MD (95% CrI), estimated treatment effect", "setting": "[2]", "value": "−1.39 (−4.38, 1.20)"}, {"measurement": "Days of hospitalization: Pr (Superiority)", "setting": "[2]", "value": 0.8509}, {"measurement": "Days on mechanical ventilation: MD (95% CrI), estimated treatment effect", "setting": "[2]", "value": "−4.47 (−6.89, 3.09)"}, {"measurement": "Days on mechanical ventilation: Pr (Superiority)", "setting": "[2]", "value": 0.9052}, {"measurement": "Days to death for COVID-19: HR (95% CrI), estimated treatment effect", "setting": "[2]", "value": "0.23 (0.01, 1.79)"}, {"measurement": "Days to death for COVID-19: Pr (Superiority)", "setting": "[2]", "value": 0.9080}, {"measurement": "Days to hospitalization for COVID-19: HR (95% CrI), estimated treatment effect", "setting": "[2]", "value": "0.58 (0.33, 0.98)"}, {"measurement": "Days to hospitalization for COVID-19: Pr (Superiority)", "setting": "[2]", "value": 0.9780}, {"measurement": "Days to hospitalization or ER visit >6 h for COVID-19: HR (95% CrI), estimated treatment effect", "setting": "[2]", "value": "0.47 (0.28, 0.76)"}, {"measurement": "Days to hospitalization or ER visit >6 h for COVID-19: Pr (Superiority)", "setting": "[2]", "value": 0.9992}, {"measurement": "Days to hospitalization or death for COVID-19: HR (95% CrI), estimated treatment effect", "setting": "[2]", "value": "0.62 (0.35, 1.05)"}, {"measurement": "Days to hospitalization or death for COVID-19: Pr (Superiority)", "setting": "[2]", "value": 0.9610}, {"measurement": "Days to recovery: HR (95% CrI), estimated treatment effect", "setting": "[2]", "value": "0.93 (0.83, 1.04)"}, {"measurement": "Days to recovery: Pr (Superiority)", "setting": "[2]", "value": 0.8862}, {"measurement": "Death due to COVID-19: Pr (Superiority)", "setting": "[2]", "value": 0.845}, {"measurement": "Death due to COVID-19: RR (95% CrI), estimated treatment effect", "setting": "[2]", "value": "0.42 (0.05, 2.08)"}, {"measurement": "Death or hospitalization due to COVID-19: Pr (Superiority)", "setting": "[2]", "value": 0.961}, {"measurement": "Death or hospitalization due to COVID-19: RR (95% CrI), estimated treatment effect", "setting": "[2]", "value": "0.63 (0.37, 1.05)"}, {"measurement": "Hospitalization for COVID-19 (excluding those resulting in death): Pr (Superiority)", "setting": "[2]", "value": 0.928}, {"measurement": "Hospitalization for COVID-19 (excluding those resulting in death): RR (95% CrI), estimated treatment effect", "setting": "[2]", "value": "0.67 (0.39, 1.14)"}, {"measurement": "Hospitalization or ER (any duration) for COVID-19: Pr (Superiority)", "setting": "[2]", "value": 0.991}, {"measurement": "Hospitalization or ER (any duration) for COVID-19: RR (95% CrI), estimated treatment effect", "setting": "[2]", "value": "0.72 (0.56, 0.95)"}, {"measurement": "Hospitalization or ER >6 h for COVID-19: Pr (Superiority)", "setting": "[2]", "value": 0.999}, {"measurement": "Hospitalization or ER >6 h for COVID-19: RR (95% CI), estimated treatment effect", "setting": "[2]", "value": "0.49 (0.30, 0.78)"}, {"measurement": "Mechanical ventilation: Pr (Superiority)", "setting": "[2]", "value": 0.717}, {"measurement": "Mechanical ventilation: RR (95% CrI), estimated treatment effect", "setting": "[2]", "value": "0.72 (0.21, 2.21)"}, {"measurement": "All cause ER visit >6 h, hospitalization, or death, % of patients", "setting": "[3]", "value": "(3.7%)"}, {"measurement": "All cause ER visit >6 h, hospitalization, or death, Pr (Superiority)", "setting": "[3]", "value": 0.987}, {"measurement": "All cause ER visit >6 h, hospitalization, or death, RR (95% CrI) vs placebo", "setting": "[3]", "value": "0.64 (0.42, 0.95)"}, {"measurement": "All cause ER visit, hospitalization, or death, % of patients", "setting": "[3]", "value": "(13.5%)"}, {"measurement": "All cause ER visit, hospitalization, or death, Pr (Superiority)", "setting": "[3]", "value": 0.831}, {"measurement": "All cause ER visit, hospitalization, or death, RR (95% CrI) vs placebo", "setting": "[3]", "value": "0.90 (0.72, 1.12)"}, {"measurement": "All cause death or hospitalization due to COVID-19, % of patients", "setting": "[3]", "value": "(2.6%)"}, {"measurement": "All cause death or hospitalization due to COVID-19, RR (95% CrI) vs placebo", "setting": "[3]", "value": "0.66 (0.40, 1.07)"}, {"measurement": "Days of hospitalization, IRR (95% CrI) vs placebo", "setting": "[3]", "value": "−1.02 (−3.86, 1.37)"}, {"measurement": "Days on mechanical ventilation, IRR (95% CrI) vs placebo", "setting": "[3]", "value": "−4.47 (−6.89, 3.09)"}, {"measurement": "Days to death for COVID-19, HR (95% CrI) vs placebo", "setting": "[3]", "value": "0.22 (0.01, 1.64)"}, {"measurement": "Days to hospitalization for COVID-19, HR (95% CrI) vs placebo", "setting": "[3]", "value": "0.57 (0.33, 0.95)"}, {"measurement": "Days to hospitalization or ER visit >6 h for COVID-19, HR (95% CrI) vs placebo", "setting": "[3]", "value": "0.47 (0.29, 0.73)"}, {"measurement": "Days to hospitalization or ER visit >6 h for COVID-19, Pr (Superiority)", "setting": "[3]", "value": 0.999}, {"measurement": "Days to hospitalization or death for COVID-19, HR (95% CrI) vs placebo", "setting": "[3]", "value": "0.59 (0.35, 1.00)"}, {"measurement": "Days to recovery, HR (95% CrI) vs placebo", "setting": "[3]", "value": "0.94 (0.85, 1.05)"}, {"measurement": "Death due to COVID-19, % of patients", "setting": "[3]", "value": "(0.1%)"}, {"measurement": "Death due to COVID-19, RR (95% CrI) vs placebo", "setting": "[3]", "value": "0.40 (0.05, 1.95)"}, {"measurement": "Death or hospitalization due to COVID-19, % of patients", "setting": "[3]", "value": "(2.4%)"}, {"measurement": "Death or hospitalization due to COVID-19, RR (95% CrI) vs placebo", "setting": "[3]", "value": "0.61 (0.36, 0.99)"}, {"measurement": "Hospitalization or ER (any duration) for COVID-19, % of patients", "setting": "[3]", "value": "(10.8%)"}, {"measurement": "Hospitalization or ER (any duration) for COVID-19, Pr (Superiority)", "setting": "[3]", "value": 0.981}, {"measurement": "Hospitalization or ER (any duration) for COVID-19, RR (95% CrI) vs placebo", "setting": "[3]", "value": "0.78 (0.61, 0.99)"}, {"measurement": "Hospitalization or ER >6 h for COVID-19, % of patients", "setting": "[3]", "value": "(2.7%)"}, {"measurement": "Hospitalization or ER >6 h for COVID-19, Pr (Superiority)", "setting": "[3]", "value": 0.999}, {"measurement": "Hospitalization or ER >6 h for COVID-19, RR (95% CI) vs placebo", "setting": "[3]", "value": "0.49 (0.30, 0.76)"}, {"measurement": "Mechanical ventilation, % of patients", "setting": "[3]", "value": "(0.4%)"}, {"measurement": "Mechanical ventilation, RR (95% CrI) vs placebo", "setting": "[3]", "value": "0.66 (0.20, 2.03)"}, {"measurement": "Days to hospitalization for COVID-19, IQR", "setting": "ITT preliminary, n=916", "value": 3.0}, {"measurement": "Days to hospitalization for COVID-19, Mean", "setting": "ITT preliminary, n=916", "value": 5.10}, {"measurement": "Days to hospitalization for COVID-19, Median", "setting": "ITT preliminary, n=916", "value": 4.0}, {"measurement": "Days to hospitalization or ER visit ≥6 h for COVID-19, IQR", "setting": "ITT preliminary, n=916", "value": 3.0}, {"measurement": "Days to hospitalization or ER visit ≥6 h for COVID-19, Mean", "setting": "ITT preliminary, n=916", "value": 5.8}, {"measurement": "Days to hospitalization or ER visit ≥6 h for COVID-19, Median", "setting": "ITT preliminary, n=916", "value": 4.0}, {"measurement": "Days until death due to COVID-19, IQR", "setting": "ITT preliminary, n=916", "value": 16.0}, {"measurement": "Days until death due to COVID-19, Mean", "setting": "ITT preliminary, n=916", "value": 22}, {"measurement": "Days until death due to COVID-19, Median", "setting": "ITT preliminary, n=916", "value": 22.0}, {"measurement": "Any cause Death, % of patients", "setting": "ITT preliminary, n=916, 28 days", "value": "(0.3%)"}, {"measurement": "ER visits over 6 hrs, % of patients", "setting": "[4]", "value": 0.7, "unit": "%"}, {"measurement": "Relative Reduction in Risk, Deaths", "setting": "[4]", "value": 0.72}, {"measurement": "Relative Reduction in Risk, ER visits over 6 hrs", "setting": "[4]", "value": 0.68}, {"measurement": "Relative Reduction in Risk, Hospitalizations", "setting": "[4]", "value": 0.43}, {"measurement": "Relative Reduction in Risk, Hospitalizations or ER visits over 6 hrs", "setting": "[4]", "value": 0.50}, {"measurement": "Death due to COVID-19, RR (95% CrI) vs placebo", "setting": "ITT preliminary, n=916 vs placebo 1020, 28 days", "value": "0.40 (0.05, 2.00)"}]}]}
